The text below walks through data of paper PMC4963197, “Phosphorylation acts positively and negatively to regulate MRTF-A subcellular localisation and activity” (eLife, 2016).

This assay deals with G-actin, P68135. The assay can be described thus: size exclusion chromatography. Particulars: chain shown with the change. For orientation: SEC sorts molecules by how far they enter the pores of the column.

B1: MRTF-A(67–199) L74A; L78A; S98D (protein)
chain: LSERKNVAQLKAQQRRTREELVSQGIMPPLKDPAAFHEQRRSLERARTEDYLKRKIRSRPERAELVRMHILEETSAEPSLQAKQLKLKRARLADDLNEKIAQRPGPMELVEKNILPVESSLKEAIIVGQVNYP
In the case of B1, the other: actins (apparent stoichiometry of G-actin binding) was 2.3.
